Reference: the supplement of paper PMC9170038

Tested on: MS2 coat protein
Assay: apparent KD of MS2 coat protein; higher = weaker reporter binding
Details: Eterna round: R107; input ligand: none
In short: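 Designed RNA switches were transcribed on-chip from Illumina sequencing clusters. SNAP-549-labelled MS2 coat protein was titrated onto them in twofold steps from 0.7 or 1.5 nM to 3 µM in 100 mM Tris-HCl pH 7.5, 80 mM KCl, 4 mM MgCl2, either without or with constant ligand. Apparent KD reflects the per-design median of normalised cluster binding-curve fits.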

| Sequence | apparent KD of MS2 coat protein [nM] |
| --- | --- |
| AUUGACGUUGCGGCCGCCACUAGGCGUUCCCGGACAUGAGGAUCACCCAUGUGCUAGAGUGUAACUAGGACCGGGUAACCUCAGC [Verevean] | 103 |
| GCGGGACUUUCGGCCGCCACUGAGAGAGUCGUGUGAACAUGAGGAUCACCCAUGUAAUAUAUAUACAGGACCGGGAGGGUUGCGC [4.Q] | 13.4 |
| UGUUUGGUGCGCGAGUGUUGGAUAAUUGAUACCAGUGUAGAUGUGCGCCCUUGGCAGCGAAUCCGAACAUGAGGAUCACCCAUGU [5.Z] | 27.1 |
| GCUACAUGAGGAUCACCCAUGUCAGCUACACGAGGACCGGUACGGCCGCCACUCGGUAGCGCUCAUCCUCGUGUGUAAGUCAAGU [Xedier] | 81.6 |
| AGCUCGCAUCCUCUAGCGUCAAAGACGCCUCGAGGACCGGUACGGCCGCCACUCGAUAUGAGGAUCACCCAUAUCAAAGCGAGCA [TrypAX 2 #SwitchBubble #AlternativeMS2 #MS2Late #CuTurnoff] | 53.8 |
| UGUAUGGACUGAAGGAGCGGUUGAUAACAUGAGCAUCAGCCAUGUAAUAAGGCGAAAGCCAACCAGGUAGGUCGCAGUCCAUACU | 9.68 |
| GGAUAGGACACGGCCGCCACUACCUAGGAUACUAGCAACAUUUGGGUACACGAGGAUCACCCGUGUAGGACCGGGUGUCCUAUCG | 10.7 |
| GGUUUGCGGCCUGAUACCAGUGAUGGAUGAACCCUAGUCAACAUGAGGAUCACCCAUGUUCACCCUUGGCAGCAGUGACGCUCGA [theeternabot_exclusion_MS2_Theo_B_34] | 69.7 |
| GCCGCGGCCGCGAUACACAUGGGUGUGUAACGAGGACCGGUACGGCCGCCACUCGAGAUGGUGCACAUGAGGAUCACCCAUGUGC [Exclusion Tryp A GF15] | 14.9 |
| UGUAUGUGAUCUGAUACCAGCUAGCGGAAACGCAAAAGCUUGAGGAUCACCCAAGUGGAAAGCCCUUGGCAGCAGAUCGCAUACU [Denovo 1 #StaticStem #AlternativeMS2] | 15.1 |
| GGGCCUAUAAGCAGGCCCACAGCGGGUGAUACCAGCAAUAAAACUUGCCCUUGGCAGCACACAGCUACAUGAGGAUCACCCAUGU [Beator] | 45.1 |
| UGUAUGUGAUCUGAUACCAGAGUGACGCGAAAGCGAACCUGAGGAUCACCCUGGUAAUAACUCCCUUGGCAGCAGAUCGCAUACU | 61.1 |
| GCUACAUGAGGAUCACCCAUGUGUACUGAAGGAGCGGCGAAAACGCCAGGUAGGUCGCAGUAUGUGGCUCUGGGCACGAGAUGGC [#02 Same State - Arginine A] | 37.3 |
| ACAUGAGGAUCACCCAUGUAUGACUAUCCUCGAGGACCGGUACGGCCGCCACUCGAAGGAGUGGCUCGCGAGUGCGCACUUGCAA [5' end] | 12.5 |
| GUCUUGGAAUCGGCCGCCACUACAUGAGGAUCACCCAUGUGGACAAAUAGGGUUUUUAAGCUCGGUAGGACCGGGAUUCGGACAU [Mamaon] | 14.3 |
| GUGUGGCGCUCGGCCGCCACUCAGACAUGAGGAUCACCCAUGUAGAACAUGAGGAUCACCCAUGUGAGGACCGGGAGACACACGA [Exclusion Tryptophan B GF11] | 288 |
| AGGACGGCCGGAAGGAGCGGUACAUGAGGAUCACCCAUGUACCUCUGGGCAUCCGUAGUGUGCCAGGUAGGUCGCCGGUUGCGGG [Veatgema] | 9.88 |
| AGCACUGUGACGGCCGCCACUAUAUUAGGGUGGUAGGGUUCAUAAAUACAUGAGGAUCACCCAUGUAGGACCGGGUCUCAGUGCA [Omei Trp Exc B A v1] | 12.1 |
| UACAUGAGGAUCACCCAUGUGUAACCAGAAGGAGCGUGCGAAAGCACAGGUAGGUCGCUGGUGGGUUUAGGUUUAAUAGGUGUAU [SSAA NP+V+V2 #4 +-Same Structure] | 32.3 |
| UCGUGUAUUUCGGAUACCAGUGAAAUCGAUACAUGAGGAUCACCCAUGUGAGAGGAUGUACACCCUUGGCAGCUGUAUAUAUCUG [fgfmullin] | 29.1 |
| GAGCUCGUGGACUGGCGUGCUCCGCUCCGUCGAGGACCGGUACGGCCGCCACUCGACAUGAGGAUCACCCAUGUGCGAGCUCGCU [#1 Exclusion - Tryptophan A Attempt #22 (HarryS)] | 46.2 |

Same assay, conditions: Eterna round: R107; input ligand: theophylline 20 uM

| Sequence | apparent KD of MS2 coat protein [nM] |
| --- | --- |
| AUUGACGUUGCGGCCGCCACUAGGCGUUCCCGGACAUGAGGAUCACCCAUGUGCUAGAGUGUAACUAGGACCGGGUAACCUCAGC [Verevean] | 290 |
| AAUCGUAAGGCGGCCGCCACUACACAUGAGGAUCACCCAUGUCUCGCAGGCUUGCGUUGGGAUAGUAGGACCGGGCCAGUAAUAA [Exclusion - Tryptophan B (Freestyle 14)] | 28.8 |
| GCGGGACUUUCGGCCGCCACUGAGAGAGUCGUGUGAACAUGAGGAUCACCCAUGUAAUAUAUAUACAGGACCGGGAGGGUUGCGC [4.Q] | 17.2 |
| AUGUACAUGACGGCCGCCACUACACUGAAAGUGGUCCAGAACAUGAGGAUCACCCAUGUAUCAAGUAGGACCGGGUCAUGUACAU [Tryp B Ex t5] | 425 |
| UGUUUGGUGCGCGAGUGUUGGAUAAUUGAUACCAGUGUAGAUGUGCGCCCUUGGCAGCGAAUCCGAACAUGAGGAUCACCCAUGU [5.Z] | 32.3 |
| GCUACAUGAGGAUCACCCAUGUCAGCUACACGAGGACCGGUACGGCCGCCACUCGGUAGCGCUCAUCCUCGUGUGUAAGUCAAGU [Xedier] | 116 |
| AACACAUGAGGAUCACCCAUGUCCAUGUACCGAGGACCGGUACGGCCGCCACUCGACAUGAGGAUCACCCAUGUUCCAUGUUGUC [Same State Tryptophan A 3] | 131 |
| AGCUCGCAUCCUCUAGCGUCAAAGACGCCUCGAGGACCGGUACGGCCGCCACUCGAUAUGAGGAUCACCCAUAUCAAAGCGAGCA [TrypAX 2 #SwitchBubble #AlternativeMS2 #MS2Late #CuTurnoff] | 59.5 |
| GCACCAGGUACGGAUACCAGAAUUUGCCAAUUGGGUGAACAUGAGGAUCACCCAUGUUAUUUCCCUUGGCAGCCGUACCUGGUGC [ETB NP+V+V2 #10] | 13.2 |
| UGUAUGGACUGAAGGAGCGGUUGAUAACAUGAGCAUCAGCCAUGUAAUAAGGCGAAAGCCAACCAGGUAGGUCGCAGUCCAUACU | 12.5 |
| GGAUAGGACACGGCCGCCACUACCUAGGAUACUAGCAACAUUUGGGUACACGAGGAUCACCCGUGUAGGACCGGGUGUCCUAUCG | 18.1 |
| GGUUUGCGGCCUGAUACCAGUGAUGGAUGAACCCUAGUCAACAUGAGGAUCACCCAUGUUCACCCUUGGCAGCAGUGACGCUCGA [theeternabot_exclusion_MS2_Theo_B_34] | 78.7 |
| GCCGCGGCCGCGAUACACAUGGGUGUGUAACGAGGACCGGUACGGCCGCCACUCGAGAUGGUGCACAUGAGGAUCACCCAUGUGC [Exclusion Tryp A GF15] | 14.1 |
| UGUAUGUGAUCUGAUACCAGCUAGCGGAAACGCAAAAGCUUGAGGAUCACCCAAGUGGAAAGCCCUUGGCAGCAGAUCGCAUACU [Denovo 1 #StaticStem #AlternativeMS2] | 14.7 |
| AUCGUACCUGAUGAUACCAGCAAUUGCUCGUAACAUGAGGAUCACCCAUGUGACCAGUGAUGCCCUUGGCAGCAUGGUCGGUGCA [Same State - Theophylline B (Freestyle 21)] | 190 |
| CGUAGUAUCAGACAUGAGGAUCACCCAUGUCGAGGACCGGUACGGCCGCCACUCGGCAGUUUGCGUCCUCAGGUACUCCAGGUAA [Larirexea] | 27.9 |
| GGGCCUAUAAGCAGGCCCACAGCGGGUGAUACCAGCAAUAAAACUUGCCCUUGGCAGCACACAGCUACAUGAGGAUCACCCAUGU [Beator] | 72.9 |
| UAUAUAUAUAUUGAUACCAGCAGAGAAAACGUUUAUCCUAACAUGAGGAUCACCCAUGUAUGCCCUUGGCAGCGGUAUAUAUAUA [8.D] | 29.2 |
| CAUGUUGUUGAAGAUACCAGAUUCUGAACGUUCACAUGAGGAUCACCCAUGUAAGUCCGAGUCCCUUGGCAGCUUAUACAGGUGG [Reatlala] | 50.8 |
